Experimental data published in patent US20250136721A1 (GlaxoSmithKline, published 2025).
Residue numbers refer to the chain shown, from its start. Names may count otherwise.

T1: Recombinant human TNFR1-Fc (human, UniProt P19438 30-211, limits assumed)
T1 construct: bought reagent; also called hTNFR1:Fc; not shown: Fc part; not described
T1 sequence (looked up): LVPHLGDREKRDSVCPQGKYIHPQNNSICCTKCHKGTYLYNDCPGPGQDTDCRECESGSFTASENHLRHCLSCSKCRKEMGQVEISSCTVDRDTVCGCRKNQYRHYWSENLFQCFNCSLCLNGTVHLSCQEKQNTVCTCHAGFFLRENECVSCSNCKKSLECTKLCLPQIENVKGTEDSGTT

B1: DOM1H-131-206 P14Q (protein, name in Kabat numbering)
VH: EVQLLESGGGLVQQGGSLRLSCAASGFTFAHETMVWVRQAPGKGLEWVSHIPPDGQDPFYADSVKGRFTISRDNSKNTLYLQMNSLRAEDTAVYHCALLPKRGPWFDYWGQGTLVTVSS
B2: DOM1H-131-206 P14T (protein, name in Kabat numbering)
VH: B1 VH with Q14T
B3: DOM1H-131-206 L108A (protein, name in Kabat numbering)
VH: B1 VH with Q14P, L114A
B4: DOM1H-131-206 L11A (protein, name in Kabat numbering)
VH: B1 VH with L11A, Q14P
B5: DOM1H-131-206 S112A (protein, name in Kabat numbering)
VH: B1 VH with Q14P, S118A
B6: DOM1H-131-206 P14E (protein, name in Kabat numbering)
VH: B1 VH with Q14E
B7: DOM1H-131-206 T110A (protein, name in Kabat numbering)
VH: B1 VH with Q14P, T116A
B8: DOM1H-131-206 P14K (protein, name in Kabat numbering)
VH: B1 VH with Q14K
B9: DOM1H-131-206 P14K + C-terminal A (protein, name in Kabat numbering)
VH: EVQLLESGGGLVQKGGSLRLSCAASGFTFAHETMVWVRQAPGKGLEWVSHIPPDGQDPFYADSVKGRFTISRDNSKNTLYLQMNSLRAEDTAVYHCALLPKRGPWFDYWGQGTLVTVSSA
B10: DOM1H-131-206 P14Q + C-terminal A (protein, name in Kabat numbering)
VH: B9 VH with K14Q
B11: DOM1H-131-206 P14T + C-terminal A (protein, name in Kabat numbering)
VH: B9 VH with K14T
B12: DOM1H-131-206 C-terminal S deletion (ΔS) (protein)
VH: EVQLLESGGGLVQPGGSLRLSCAASGFTFAHETMVWVRQAPGKGLEWVSHIPPDGQDPFYADSVKGRFTISRDNSKNTLYLQMNSLRAEDTAVYHCALLPKRGPWFDYWGQGTLVTVS
B13: DOM1H-131-206 P14Q + C-terminal ASTKG (protein, name in Kabat numbering)
VH: EVQLLESGGGLVQQGGSLRLSCAASGFTFAHETMVWVRQAPGKGLEWVSHIPPDGQDPFYADSVKGRFTISRDNSKNTLYLQMNSLRAEDTAVYHCALLPKRGPWFDYWGQGTLVTVSSASTKG
B14: DOM1H-131-206 P14K + C-terminal ASTKG (protein, name in Kabat numbering)
VH: B13 VH with Q14K
B15: DOM1H-131-206 C-terminal AST (protein)
VH: EVQLLESGGGLVQPGGSLRLSCAASGFTFAHETMVWVRQAPGKGLEWVSHIPPDGQDPFYADSVKGRFTISRDNSKNTLYLQMNSLRAEDTAVYHCALLPKRGPWFDYWGQGTLVTVSSAST
B16: DOM1H-131-206 G44E (other, name in Kabat numbering)
VH: B1 VH with Q14P, G44E
notes: VH dAb variant
B17: DOM1H-131-206 P14A (protein)
VH: B1 VH with Q14A
B18: DOM1H-131-206 L108Q (protein, name in Kabat numbering)
VH: B1 VH with Q14P, L114Q
B19: DOM1H-131-206 Q13A (protein, name in Kabat numbering)
VH: B1 VH with Q13A, Q14P
B20: DOM1H-131-206 G44E, L108Q (other, name in Kabat numbering)
VH: B1 VH with Q14P, G44E, L114Q
notes: VH dAb variant
B21: DOM1H-131-206 G44E, H91S (other, name in Kabat numbering)
VH: B1 VH with Q14P, G44E, H95S
notes: VH dAb variant
B22: DOM1H-131-206 C-terminal ASTK (protein)
VH: EVQLLESGGGLVQPGGSLRLSCAASGFTFAHETMVWVRQAPGKGLEWVSHIPPDGQDPFYADSVKGRFTISRDNSKNTLYLQMNSLRAEDTAVYHCALLPKRGPWFDYWGQGTLVTVSSASTK
B23: DOM1H-131-206 C-terminal ASTKG (protein)
VH: B13 VH with Q14P
B24: DT04-H-033 C-terminal AS (protein)
VH: EVQLLESGGGLVQPGGSLRLSCAASGFTFADYGMAWVRQAPGKGLEWVSTISYNGLYTYYADSVKGRTISRDNSKNTLYLQMNSLRAEDTAVYYCAKYEYSPESDFDYWGQGTLVTVSSAS
B25: DOM1H-131-206 C-terminal AS (protein)
VH: EVQLLESGGGLVQPGGSLRLSCAASGFTFAHETMVWVRQAPGKGLEWVSHIPPDGQDPFYADSVKGRFTISRDNSKNTLYLQMNSLRAEDTAVYHCALLPKRGPWFDYWGQGTLVTVSSAS
B26: DT04-H-033 C-terminal AAA (protein)
VH: EVQLLESGGGLVQPGGSLRLSCAASGFTFADYGMAWVRQAPGKGLEWVSTISYNGLYTYYADSVKGRTISRDNSKNTLYLQMNSLRAEDTAVYYCAKYEYSPESDFDYWGQGTLVTVSSAAA
B27: DT04-H-033 C-terminal AST (protein)
VH: B26 VH with A121S, A122T
B28: DT04-H-033 C-terminal A (protein)
VH: EVQLLESGGGLVQPGGSLRLSCAASGFTFADYGMAWVRQAPGKGLEWVSTISYNGLYTYYADSVKGRTISRDNSKNTLYLQMNSLRAEDTAVYYCAKYEYSPESDFDYWGQGTLVTVSSA
B29: DOM1H-131-206 P14A + C-terminal A (protein)
VH: B9 VH with K14A
B30: DOM1H-131-206 P14A + C-terminal ASTKG (protein)
VH: B13 VH with Q14A
B31: DOM1H-131-206 P14T + C-terminal ASTKG (protein, name in Kabat numbering)
VH: B13 VH with Q14T

biological target: pre-existing anti-VH ADA in human serum; assay: ADA confirmation assay (MSD): 10 ug/mL test material against labelled DOM1H-131-206; share of 10 ADA-positive sera with binding

% subjects with ADA binding (10 subjects) (% of subjects) | Binder
60 | B1
100 | B2
100 | B3
100 | B4
80 | B5
60 | B6
100 | B7
50 | B8
10 | B9
20 | B10
20 | B11
40 | B12
10 | B13
10 | B14
20 | B15

biological target: pre-existing anti-VH ADA in human serum; assay: as above; remark: another data set of the same source

% subjects with ADA binding (10 subjects) (% of subjects) | Binder
100 | B16
100 | B17
100 | B18
100 | B19
100 | B20
100 | B21
40 | B22
40 | B23
50 | B15

biological target: pre-existing anti-VH ADA in human serum; assay: ADA confirmation assay (MSD): 10 ug/mL test material against labelled DOM1H-131-206, mean of 10 sera

Mean % inhibition of signal in confirmation assay | Binder
99.5% | B16
58.3% | B17
90.9% | B18
99.2% | B19
91.3% | B20
99.1% | B21
19.6% | B22
8.26% | B24
16.3% | B25
28.3% | B23
11% | B26
14% | B27
12.5% | B28
26.4% | B15

biological target: pre-existing anti-VH ADA in human serum; assay: as above; remark: another data set of the same source

Mean % inhibition of signal in confirmation assay | Binder
52.9% | B1
68.9% | B2
94.3% | B3
98% | B4
77.1% | B5
47.2% | B6
78.8% | B7
46.7% | B8
29.1% | B9
29.7% | B10
8.76% | B29
33% | B11
44.7% | B12
1.77% | B23
21.8% | B13
11.9% | B30
17.2% | B31
25% | B14
35% | B15

biological target: T1, Recombinant human TNFR1-Fc; assay: ELISA: dAb on coated recombinant human TNFR1-Fc, anti-Vh detection

EC50 | Binder
0.86 nM | B16
1.64 nM | B20
3.5 nM | B21
